Results taken from patent publication US20210403538A1.
Numbering of substitutions follows the chain as printed.

B1: EBOV-517 (antibody, V domains shown)
VH: EVQLVESGGGLVQPGGSLRLSCGASGFTFNKYWMTWVRQAPGKGLEWVANINQDGSEKYFAESVKGRFTVSRDNAKNSLYLQMNSLRAEDTAVYYCARGASIEVEILYYYHMDVWGKGTLVTVSS
VL: EIVMTQSPATLSVSPGERATLSCRASQSITTHLAWYQQKPGQAPRLLIYDTSTRATGIPARFSGSGSGTEFTLTISNMQSEDFAVYYCQQYHTWPPLTFGGGTKVEIK
B2: EBOV-510 (antibody, V domains shown)
VH: QVQLQESGPGLVKPSQTLSLTCTVSGGSITSGDYYLTWVRQPPGKGLEWIGHIYYSGSTSYNPSLKSRLLMSVDTSKNQFSLRLSSVTAADTAVYYCARESDGDPSRLYFYFAMDVWGQGTLVTVSS
VL: QSALTQPASVSGSPGQSITISCTGTSSDVGGSYFVSWYQHHPGKAPKLMISEVSNRPSGVSNRFSGSKSGNTASLTISGLRTEDEADYYCSSYTSNTTLVFGGETKVTVL
B3: EBOV-514 (antibody, V domains shown)
VH: QVQLQESGPGLVKPSQTLSLTCTVSGASITGGDDFWSWIRQPPGKGLEWIGFIHHSGNAYYRSSLKSRVHFSVDTSKDQFSLTLTSVTAADTAVYYCARDKAQAYGLLYHYHTDVWGKGTLVTVSS
VL: EIVMTQSPATLSVSPGERATLSCRASQSVSSNLAWYQQKPGLAPRLLIYGAFTRATDIPDRFSGSGSGTEFTLTISSLQSEDFAIYYCQYYNDWPPGYTFGQGTKLEIK
B4: EBOV-507 (antibody, V domains shown)
VH: QVQLVQSGAEVKKPGASVKVSCKASGYTFNNYLINWVRQAPGQGLEWMGWINPHSGGTEYAQQFQGRLTVTRDTSIRTAYMELRGLTFDDSAMYYCWIWFRSETFDFWGQGTLVTVSS
VL: DIQMTQSPSAMSASVGDRVTITCRASQDISNYLAWFQQKPGQGPKRLIFEASILHSGVPSRFSGSGSGTEFTLTISSLQPEDFATYYCLQHNTYLTFGQGTKVEIK
B5: EBOV-442 (antibody, V domains shown)
VH: EVQLVESGGGLVKPGGSLRLSCTGSGGTGFTFKYAGMSWVRQAPGKGPEWIGRIKSRIDGGTTDYAAPVKDRFIVSRDDSRNTLYLQMNSLKTEDTAVYYCATGSGKGPSASFGESYYYYDFINVWGKGTTVTVSS
VL: ESVLTQSPGTLSLSPGERATLSCRASQSISRKYLAWYQQKPGQAPRLLIYGSSSRATGIPDRFSGSGSGTDFTLTISRLEPEDFAVYYCHQYESSPWTFGQGTKVEIK
B6: EBOV-524 (antibody, V domains shown)
VH: QVQLVESGGGVVQPGGSLRLSCAASGFKFSTYGMNWVRQVPGQGLEWVSFVRHDGSNKYYSDSVKGRFTIFRDNSNNKLYLQMNNLRAEDTAVYYCAKDVLDCSRADCFIYYYYMDVWGKGTLVTVSS
VL: DIQMTQSPSSVSASPGDRVTITCRASQTISGWLAWYQQKPGKAPKLLIYDVSTLQSGVPSRFSGGGSGTEFTFTISSLQPEDYATYFCQQGNRIPLSFGGGTRVEIK
B7: EBOV-511 (antibody, V domains shown)
VH: QLQLQESGPGLVKPSETLSLSCTVSGDSISANNYFWGWIRQPPGKELEWIGSIHNSGSTYYNPSLKSRVTTSVDTSRTQFSLKLHSVTAADAAIYYCARHLAPISGVIFIPSFFDSWGQGTLVTVSS
VL: EIVMTQSPATLSVSPGERATLSCRASQSVSSNLAWYQQRPGQAPRLLIFDASTRATGVPARFSGSGSGTEFTLTISSLQSEDFALYYCQQYNDWPPRLTFGGGTKVEIK
B8: EBOV-508 (antibody, V domains shown)
VH: QVQLVQSGAEVKKPGASVKVSCKASGYTFINYYMHWVRQAPGQGLEWMGTINPSTGRPNYAQKFQGRVTLTRDTSTTTVDMELSSLTSEDTAVYYCVSFQFYFDYWGQGTLVTVSS
VL: DIQMTQSPSAMSPSVGDRVTITCRASQGINNYLAWFQQKPGKVPKRLIYAASNLQSGVPSRFSGSGSGTEFTLTISSLQPEDFATYYCLQHNSYPWTFGQGTKVEIN
B9: EBOV-451 (antibody, V domains shown)
VH: EVQLVESGGSVVRPGGSLRLSCAASGFKFDEYGMSWVRQAPGKGLEWVSGITWNGGVRTYADSVKGRFTISRDNAKNSVYLQMKSLRGEDTALYYCVSWGERYDAYFDYWGQGTLVTVSS
VL: EIVLTQSPGSLSLSPGERATLSCRASQSVNSRYFAWYQQRPGQAPRLLIYATSTRATGIPDRFSGSGSGTDFTLTISRLEPEDFAVYSCQQYGSSPYTFGQGTKLEIK
B10: EBOV-520 (antibody, V domains shown)
VH: QVQLQESGPGLGKPSETLSLSCTVSGASIRGYFWNWIRQPPGKGLEWIGYIHSTGSTNYNPSLKSRVTISVDTSKNQVSLNVNSVTAADTAVYFCARGAWNVATVYYYYGMDVWGQGTLVTVSS
VL: B9 VL with S10T, N30S, R32S, R40K, Y50S, A51G, T57P, S88F, S94N, P96L
B11: EBOV-518 (antibody, V domains shown)
VH: QVTLKESGPTLVKPTQTLTLTCTFSGFSMNSSGMSVTWIRQPPGKALECLALIYWDDDKWYGPSLETRVTITKDASKNQVVLTMTNMDPVDTATYYCAHSGGLVAGAFDYWGQGTLVTVSS
VL: EIVMTQSPDSLTVSLGERATINCRSSQSVLYRVNSKNYLAWYQQKAGQTPKLIINWASTRESGVPDRFSGSGSGTDFTLTISSLQAEDVAVYYCQQYYNSPRTFGQGTKVEIK
B12: EBOV-446 (antibody, V domains shown)
VH: QVQLVQSGAEVKKPGASVKVSCKASGYTFTDYYIYWVRQAPGQGLEWMGWLNPNSGGTDYAQKFQGRVTMTRDTSIRTAYMDLSRLRSDDTAVYYCARGRRHGAYVDWGQGTLVTVSS
VL: DIQLTQSPSFLSASVGDRVTITCRASQGISTYLAWYQQKPGKAPNLLIYDTSTLQSGVPSRFSGSASGTEFTLTISSLQPEDFATYYCQQLNFYLGGLTFGQGTRLEIK
B13: EBOV-434 (antibody, V domains shown)
VH: QVQLVQSGAEVKKPGASVKVSCKASGYTFTGYYMFWVRQAPGQGLEWMGWINPNSGGTNYTQKFQGRVTMTRDTSISTAYMELSRLKSDDTAVYYCARDSGELLFVGSDVWGQGTLVTVSS
VL: DIQMTQSPSSVSASVGDRVTITCRASLDISYWLAWYQQKPGKAPKLLIYAASNLQSGVPSRFSGSGSGTDFTLTISSLQPEDFATYYCQQANSFPQTFGQGTRLELK

Columns and labels:
[1] = molecular target: SUDV GP [change] (Sudan ebolavirus) (UniProt Q7T9D9)
[2] = molecular target: MARV GP [change] (Lake Victoria marburgvirus) (UniProt Q1PD50)
[3] = molecular target: BDBV GP [change] (Bundibugyo ebolavirus (BDBV), strain 200706291 Uganda); assay: ELISA, coated recombinant GP ΔTM
[4] = molecular target: EBOV GP [change] (Zaire ebolavirus (EBOV), strain Makona); assay: ELISA, coated recombinant GP ΔTM

Binder | EC50 [1] | EC50 [2] | EC50 [3] | EC50 [4]
B1 | 1.69 µg/mL | > 10 µg/mL | 0.865 µg/mL | 0.042 µg/mL
B2 | 3.09 µg/mL | > 10 µg/mL | 0.261 µg/mL | 0.143 µg/mL
B3 | 0.015 µg/mL | > 10 µg/mL | 0.01 µg/mL | 0.007 µg/mL
B4 | 0.002 µg/mL | > 10 µg/mL | 0.004 µg/mL | 0.001 µg/mL
B5 | 0.006 µg/mL | > 10 µg/mL | 0.003 µg/mL | 0.001 µg/mL
B6 | 0.701 µg/mL | > 10 µg/mL | 0.146 µg/mL | 0.123 µg/mL
B7 | 0.387 µg/mL | > 10 µg/mL | 0.289 µg/mL | 0.094 µg/mL
B8 | 0.003 µg/mL | > 10 µg/mL | 0.005 µg/mL | 0.002 µg/mL
B9 | 0.003 µg/mL | > 10 µg/mL | 0.007 µg/mL | 0.001 µg/mL
B10 | 0.136 µg/mL | > 10 µg/mL | 0.072 µg/mL | 0.012 µg/mL
B11 | 0.352 µg/mL | 0.78 µg/mL | 2.63 µg/mL | 0.283 µg/mL
B12 | 0.722 µg/mL | > 10 µg/mL | 0.002 µg/mL | 0.009 µg/mL
B13 | 1.11 µg/mL | > 10 µg/mL | 0.415 µg/mL | 0.304 µg/mL
